From FireProtDB (doi:10.1021/bi991296s)
Several values for one entry are separate records, joined by “and”; a condition that tells them apart may be missing. Equal entries are not always repeated.

Conditions: Escherichia coli (strain K12), pH 7.8, 25 °C, Urea, transition: 4, whole UniProt chain shown
[1] = SAXS, Potassium phosphate 10 mM
[2] = SEC, Potassium phosphate 100 mM

B1: Tryptophan synthase alpha chain wild type, P0A877 (protein)
chain: MERYESLFAQLKERKEGAFVPFVTLGDPGIEQSLKIIDTLIEAGADALELGIPFSDPLADGPTIQNATLRAFAAGVTPAQCFEMLALIRQKHPTIPIGLLMYANLVFNKGIDEFYAQCEKVGVDSVLVADVPVEESAPFRQAALRHNVAPIFICPPNADDDLLRQIASYGRGYTYLLSRAGVTGAENRAALPLNHLVAKLKEYNAAPPLQGFGISAPDQVKAAIDAGAAGAISGSAIVKIIEQHINEPEKMLAALKVFVQPMKAATRS
denaturant m value (CD, Potassium phosphate 10 mM): 2.2 kcal/mol/M and 1.1 kcal/mol/M and 0.84 kcal/mol/M
unfolding free energy (CD, Potassium phosphate 10 mM): 6 kcal/mol and 4.5 kcal/mol and 4.9 kcal/mol
denaturant m value [1]: 2 kcal/mol/M and 0.9 kcal/mol/M
unfolding free energy [1]: 5.3 kcal/mol and 3.1 kcal/mol
denaturant m value [2]: 2 kcal/mol/M and 1.2 kcal/mol/M
unfolding free energy [2]: 5.7 kcal/mol and 4.9 kcal/mol
